Data published in publication PMC6625990, “Structural underpinnings of Ric8A function as a G-protein α-subunit chaperone and guanine-nucleotide exchange factor” (Nature Communications, 2019).
Values joined by “and” are separate entries in the source; they are usually repeats but may differ in a detail not shown here. Identical values can stand only once. No end group written: not given here. *: point of attachment. Biotin = O=C1N[C@H]2[C@H](CS[C@H]2CCCCC(=O)*)N1

B1: bovine Ric8A1–492 (domain or fragment, UniProt Q5E9J8 1-492, looked up)
chain: MEPRAVADALETGEEDVVMEALRAYNRENSQSFTFDDAQQEDRKRLAKLLVSVLEQGLPPSRRVIWLQSIRILSRDRSCLDSFTSRRSLQALACYAGISASQGSVPEPLNMDVVLESLKCLCNLVLSSPVAQALAAEAGLVVRLAERVGLCRQSSFPHDVQFFDLRLLFLLTALRTDVRQQLFQELQGVRLLTRALELTLGMTEGERHPELLPPQETERAMEILKVLFNITFDSIKREVDEEDAALYRHLGTLLRHCVMLAAAGDRTEELHGHAVNLLGNLPVKCLDVLLTLEPHEGSLEFLGVNMDVIRVLLSFMEKRLHQTHRLKESVAPVLSVLTECARMHRPARKFLKAQVLPPLRDVRTRPEVGELLRNKLVRLMTHLDTDVKRVAAEFLFVLCSESVPRFIKYTGYGNAAGLLAARGLMAGGRPEGQYSEDEDTDTDEYKEAKASINPVTGRVEEKPPNPMEGMTEEQKEHEAMKLVNMFDKLSRH
B4: Gαt333–350 (peptide, UniProt P04695 333-350, looked up)
peptide: Biotin-DAVTDIIIKENLKDCGLF
notes: also called 18-mer C-terminal peptide of Gαt; biotinylated Gαt333–350

Assays:
Settings in all cases: both partners purified
Gαt333–350 = target: B4; assay: differential scanning fluorimetry; Ric8A constructs at 0.5 mg/ml with or without 50 µM peptide, Sypro Orange, 20 mM Tris-HCl pH 7.5, 150 mM KCl, 5% glycerol, 1 mM TCEP
Gαs363–380 = target: T1, Gαs363–380 (UniProt P63092-2 363-380); assay: BLI; N-terminally biotinylated Gα peptides on streptavidin biosensors, Ric8A proteins in solution; Octet RED96, 26 °C, 20 mM Tris, 150 mM KCl, 5% glycerol, 1 mM TCEP, 0.5 mg/ml BSA, pH 8.0; kinetic fit (1:1 model) and steady-state fit (one site)
T1 construct: Gαs, C-terminal 18 residues 363-380; the numbers fit the 380-residue short form; also called peptide comprised of the C-terminal 18 residues of Gαs; Gαs C-terminal peptide
T1 peptide (looked up): Biotin-NDCRDIIQRMHLRQYELL

MBP-Gαt327–350 = target: T2, MBP-Gαt327–350 (UniProt P04695 327-350); assay: SEC; Ric8A1–492 mixed with GB1-Gαt340–350 or MBP-Gαt327–350; elution profiles
T2 construct: In pET15b; also called 24 C-terminal residues of Gαt fused to MBP; tagged C-terminal fragment of Gα; source: E. coli BL21(DE3), purified (Ni-NTA, SEC); not shown: MBP (E. coli MBP28–394 with D110A/K111A/E200A/N201A/A243H/K247H/K267A, joined by an AAAH linker), N-terminal, kept
T2 chain (looked up): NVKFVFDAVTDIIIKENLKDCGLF

GB1-Gαt340–350 = target: T3, GB1-Gαt340–350 (UniProt P04695 340-350); assay: as above
T3 construct: transducin-α (Gαt, Gαt1), the 11 C-terminal residues 340-350; Cloned into a modified pQE30 vector containing the GB1 tag; also called 11 C-terminal residues of Gαt fused to the B1 domain of Streptococcal protein G; source: E. coli BL21(DE3); purification not described
T3 chain (looked up): IKENLKDCGLF

bovine Ric8A1–492 [1] = target: B1; assay: BLI; N-terminally biotinylated Gα peptides on streptavidin biosensors, Ric8A proteins in solution; Octet RED96, 26 °C, 20 mM Tris, 150 mM KCl, 5% glycerol, 1 mM TCEP, 0.5 mg/ml BSA, pH 8.0; kinetic fit (1:1 model) and steady-state fit (one site)
bovine Ric8A1–492 [2] = target: B1; assay: BLI; full-length Avi-tagged Gαt on streptavidin biosensors, Ric8A1–492 proteins in solution; 26 °C, 20 mM Tris, 150 mM KCl, 5% glycerol, 1 mM TCEP, 0.5 mg/ml BSA, pH 8.0; steady-state fit

Q: Which “shift of Tm” value (Gαt333–350) does the source give for B1 here?
A: Its value is ~9 °C.

Q: What about the “fold lower affinity than to Gαt333–350” value (Gαs363–380) of the same binder?
A: The value was ~18 fold.

Q: And the “stoichiometry N” value (MBP-Gαt327–350)?
A: The value was ~1.

Q: What about the “stoichiometry N” value (GB1-Gαt340–350) of the same binder?
A: The value was ~1.

B2: peptide C2 (peptide)
peptide: Biotin-NDCRDIIIRMNLRQCGLF
modifications: cysteine pairing not given here
notes: Gαs C-terminal 18-mer without its last four residues, with Q370I and H373N; the numbers fit the 380-residue short form; the four C-terminal residues of Gαt; Peptide C1 with two additional substitutions
Q: Does B2 bind (bovine Ric8A1–492 [1])?
A: Result: binds

B3: Avi-tagged I340Q/N343H mutant of Gαt (natural protein)
chain: MGAGASAEEKHSRELEKKLKEDAEKDARTVKLLLLGAGESGKSTIVKQMKIIHQDGYSLEECLEFIAIIYGNTLQSILAIVRAMTTLNIQYGDSARQDDARKLMHMADTIEEGTMPKEMSDIIQRLWKDSGIQACFDRASEYQLNDSAGYYLSDLERLVTPGYVPTEQDVLRSRVKTTGIIETQFSFKDLNFRMFDVGGQRSERKKWIHCFEGVTAIIFCVALSDYDLVLAEDEEMNRMHESMKLFDSICNNKWFTDTSIILFLNKKDLFEEKIKKSPLTICYPEYAGSNTYEEAGNYIKVQFLELNMRRDVKEIYSHMTCATDTQNVKFVFDAVTDIIQKEHLKDCGLF
modifications: biotin on the Avi tag (cells grown in media supplemented with biotin)
Q: B3 was tested. Which Kd (bovine Ric8A1–492 [2]) did it give?
A: The Kd was 2300 nM.

Q: How did the Kd (bovine Ric8A1–492 [1]) turn out when B4 was run?
A: Its Kd is 240 nM and 280 nM and 270 nM.

Q: And the koff (bovine Ric8A1–492 [1])?
A: Its koff is 0.031 s⁻¹.

Q: What about the kon (bovine Ric8A1–492 [1]) of the same binder?
A: Its kon is 130000 M⁻¹ s⁻¹.

B5: full-length Avi-tagged Gαt (natural protein)
chain: MGAGASAEEKHSRELEKKLKEDAEKDARTVKLLLLGAGESGKSTIVKQMKIIHQDGYSLEECLEFIAIIYGNTLQSILAIVRAMTTLNIQYGDSARQDDARKLMHMADTIEEGTMPKEMSDIIQRLWKDSGIQACFDRASEYQLNDSAGYYLSDLERLVTPGYVPTEQDVLRSRVKTTGIIETQFSFKDLNFRMFDVGGQRSERKKWIHCFEGVTAIIFCVALSDYDLVLAEDEEMNRMHESMKLFDSICNNKWFTDTSIILFLNKKDLFEEKIKKSPLTICYPEYAGSNTYEEAGNYIKVQFLELNMRRDVKEIYSHMTCATDTQNVKFVFDAVTDIIIKENLKDCGLF
modifications: biotin on the Avi tag (cells grown in media supplemented with biotin)
Q: With B5 as the binder, how does the Kd (bovine Ric8A1–492 [2]) read?
A: Its Kd is 24 nM.

B6: peptide C1 (peptide)
peptide: Biotin-NDCRDIIQRMHLRQCGLF
modifications: cysteine pairing not given here
notes: Gαs C-terminal 18-mer without its last four residues; the numbers fit the 380-residue short form; the four C-terminal residues of Gαt; also called chimeric C-terminal peptide of Gαs ending in CGLF
Q: Does B6 bind (bovine Ric8A1–492 [1])?
A: Result: binds
